Experimental data taken from the Human Domainome abundance scans (Beltran et al. 2025).
± gives the uncertainty stated by the source.

B1: Ankyrin-2, residues 3571 to 3650; numbered along this chain, Q01484 (parent)
chain: ERLAYIADHLGFSWTELARELDFTEEQIHQIRIENPNSLQDQSHALLKYWLERDGKHATDTNLVECLTKINRMDIVHLME

Variants of: B1
Assay: abundance fitness (aPCA) (normalised: wild type 0, dead -1); higher = more abundant; growth selection in yeast, the domain comes from the species named
Conditions: Homo sapiens

Variant | abundance fitness
ERLAYIADHLGFSWTELARELDFTEEQIHQIRIENPNDLQDQSHALLKYWLERDGKHATDTNLVECLTKINRMDIVHLME [S38D] | -0.038 ± 0.15
ERLAYIADHLGFSWTELARELDFTEEQIHQIRIENPNWLQDQSHALLKYWLERDGKHATDTNLVECLTKINRMDIVHLME [S38W] | -0.358 ± 0.075
ERLAYIADHLGFSWTELARELDFTEEQIHQIRIENPNSEQDQSHALLKYWLERDGKHATDTNLVECLTKINRMDIVHLME [L39E] | -0.027 ± 0.058
ERLAYIADHLGFSWTELARELDFTEEQIHQIRIENPNSAQDQSHALLKYWLERDGKHATDTNLVECLTKINRMDIVHLME [L39A] | 0.031 ± 0.072
ERLAYIADHLGFPWTELARELDFTEEQIHQIRIENPNSLQDQSHALLKYWLERDGKHATDTNLVECLTKINRMDIVHLME [S13P] | -0.291 ± 0.11
ERLAYIADHLGFAWTELARELDFTEEQIHQIRIENPNSLQDQSHALLKYWLERDGKHATDTNLVECLTKINRMDIVHLME [S13A] | -0.097 ± 0.081
ERLAYIADHLGFSWTELARELDFTEEQIHQIRIENPNSLQDQSHALLKYWLERDGKLATDTNLVECLTKINRMDIVHLME [H57L] | -0.093 ± 0.064
ERLARIADHLGFSWTELARELDFTEEQIHQIRIENPNSLQDQSHALLKYWLERDGKHATDTNLVECLTKINRMDIVHLME [Y5R] | -0.505 ± 0.32
ERLAYIADHLGFSWTELARELDFTEEQIHQIWIENPNSLQDQSHALLKYWLERDGKHATDTNLVECLTKINRMDIVHLME [R32W] | -0.25 ± 0.22
ERLAYIADHLGFSWTELARELDFTEEQIHQIRIENPNSLQDQSHALLKYWLERDGKHATDTNLVECLTKENRMDIVHLME [I70E] | -0.305 ± 0.12
ERLAYIADHLGFSWTELARELDFTEEQIHQIRIENPNSLQDQSHALLKYWLERDGKHATDTNLVECLTKNNRMDIVHLME [I70N] | -0.693 ± 0.26
ERLAYIADHLGFSWTELARELDFTEEQIHQIRIKNPNSLQDQSHALLKYWLERDGKHATDTNLVECLTKINRMDIVHLME [E34K] | -0.045 ± 0.16
ERLAYIADHLGFSWTELARELDFTEEQIHQIRIINPNSLQDQSHALLKYWLERDGKHATDTNLVECLTKINRMDIVHLME [E34I] | -0.042 ± 0.15
ERLAYIADHLGFSWTELARELDFTEEQIHQIRIENPNSLQDQSHALLKYWLERDGKHATDTFLVECLTKINRMDIVHLME [N62F] | -0.181 ± 0.13
ERLAYIADHLGFSWTELARELDFTEEQIHQIRIENPNSLQDQSHALIKYWLERDGKHATDTNLVECLTKINRMDIVHLME [L47I] | -0.061 ± 0.11
ERLAYIADHLGFSWTELANELDFTEEQIHQIRIENPNSLQDQSHALLKYWLERDGKHATDTNLVECLTKINRMDIVHLME [R19N] | 0.015 ± 0.16
ERLAYIADHLGFSWTELARELDFTEEQIHQIRIENPNSLQDQSHALLKYWLERDGKHATDTNRVECLTKINRMDIVHLME [L63R] | -0.935 ± 0.087
ERLAYIADHLGFSWTELARELDFTEEQIHQIRIENPNSLQDQSHALLKYWLERDGKHFTDTNLVECLTKINRMDIVHLME [A58F] | -0.05 ± 0.073
ERLAYIADHLGFSWTELARELDFTEEQIHQIRIENPNSLQDQSHALLKYWLERDGKHATDKNLVECLTKINRMDIVHLME [T61K] | -0.286 ± 0.26
ERLAYIADHLGFSWTELARELDFTEEQIHWIRIENPNSLQDQSHALLKYWLERDGKHATDTNLVECLTKINRMDIVHLME [Q30W] | -0.209 ± 0.078
ERLAYIADHLGFSWTELARELDFTEEQIHQIRIENPNSLQDQSHALLKYWLERDGKHATDTNLVECLTKINRTDIVHLME [M73T] | -0.092 ± 0.16
ERLAYIWDHLGFSWTELARELDFTEEQIHQIRIENPNSLQDQSHALLKYWLERDGKHATDTNLVECLTKINRMDIVHLME [A7W] | -0.053 ± 0.24
ERLAYIADHLGFSWTELARELDFTEGQIHQIRIENPNSLQDQSHALLKYWLERDGKHATDTNLVECLTKINRMDIVHLME [E26G] | -0.059 ± 0.046

Variant | abundance fitness
ERLAYIADHLGFSWTELARELDFTCEQIHQIRIENPNSLQDQSHALLKYWLERDGKHATDTNLVECLTKINRMDIVHLME [E25C] | -0.22 ± 0.14
ERLAYIADHLGFSWTELARELDFTTEQIHQIRIENPNSLQDQSHALLKYWLERDGKHATDTNLVECLTKINRMDIVHLME [E25T] | -0.065 ± 0.077
ERLAYIADHLGFSWTELARELDFTPEQIHQIRIENPNSLQDQSHALLKYWLERDGKHATDTNLVECLTKINRMDIVHLME [E25P] | 0.021 ± 0.07
ERLAYIADHLGFSWTELARELDFTGEQIHQIRIENPNSLQDQSHALLKYWLERDGKHATDTNLVECLTKINRMDIVHLME [E25G] | -0.074 ± 0.056
ERLAYIADHLGFSWTELARELDFTEEQIHQIRIENPNSLQDQSPALLKYWLERDGKHATDTNLVECLTKINRMDIVHLME [H44P] | -0.992 ± 0.46
ERLAYIADHLGFSWTELARELDFTEEQIHQIRIENPNSLQDQSTALLKYWLERDGKHATDTNLVECLTKINRMDIVHLME [H44T] | -0.269 ± 0.47
ERLAYIADHLGFSWTELARELDFTEEQIHQIRIENPNSLQDQSHALLKYYLERDGKHATDTNLVECLTKINRMDIVHLME [W50Y] | -0.14 ± 0.24
ERLAYIADHLGFSWTELARELDFTEEQIHQIRIENNNSLQDQSHALLKYWLERDGKHATDTNLVECLTKINRMDIVHLME [P36N] | 0.253 ± 0.43
ERRAYIADHLGFSWTELARELDFTEEQIHQIRIENPNSLQDQSHALLKYWLERDGKHATDTNLVECLTKINRMDIVHLME [L3R] | -0.077 ± 0.051
ERTAYIADHLGFSWTELARELDFTEEQIHQIRIENPNSLQDQSHALLKYWLERDGKHATDTNLVECLTKINRMDIVHLME [L3T] | -0.019 ± 0.075
ERLAYIADHLGFSWTELARELDFTEEQIHQIRIENPNSLQDQSHALLKYWLERDGKHATKTNLVECLTKINRMDIVHLME [D60K] | -0.092 ± 0.12
ERLAYIADHLGFSWTELARELDFTEEQIHQIRIENPNSLQDQSHALLKYWLERDGKHATYTNLVECLTKINRMDIVHLME [D60Y] | -0.151 ± 0.13
ERLAYIADHLGFSWTELARFLDFTEEQIHQIRIENPNSLQDQSHALLKYWLERDGKHATDTNLVECLTKINRMDIVHLME [E20F] | -0.098 ± 0.22
ERLAYIADHLGFSWTELARLLDFTEEQIHQIRIENPNSLQDQSHALLKYWLERDGKHATDTNLVECLTKINRMDIVHLME [E20L] | -0.083 ± 0.059
ERLAYIADHLGFSWTELARQLDFTEEQIHQIRIENPNSLQDQSHALLKYWLERDGKHATDTNLVECLTKINRMDIVHLME [E20Q] | -0.169 ± 0.15
ERLAYIADHLGFSWTELARELDFTEEQIHQIRIENPNSLQDQSHATLKYWLERDGKHATDTNLVECLTKINRMDIVHLME [L46T] | -0.127 ± 0.2
ERLAYIADHLGFSWTELARELDFTEEQIHQIRIENPNSLQDQSHAGLKYWLERDGKHATDTNLVECLTKINRMDIVHLME [L46G] | -0.574 ± 0.1
ERLAYIADHLGFSWTELARELDFTEEQIHQIRIENPNSLQDQSHALLKYWLERDGKHATDTNLVHCLTKINRMDIVHLME [E65H] | -0.059 ± 0.13
ERLAYIADHLGFSWTELARELDFTEEQIHQIRIENPNSLQDQSHALLKYWLERDGKHATDTNLVRCLTKINRMDIVHLME [E65R] | -0.011 ± 0.045
ERLAYIADHLGFSWTELARELDFTEEQIHQIRIENPNSLQDQSHALLKYWLERDGKHATDTNLVACLTKINRMDIVHLME [E65A] | -0.012 ± 0.052
ERLAYKADHLGFSWTELARELDFTEEQIHQIRIENPNSLQDQSHALLKYWLERDGKHATDTNLVECLTKINRMDIVHLME [I6K] | -0.807 ± 0.45
ERLAYSADHLGFSWTELARELDFTEEQIHQIRIENPNSLQDQSHALLKYWLERDGKHATDTNLVECLTKINRMDIVHLME [I6S] | -0.642 ± 0.23
ERLAYIADHLGFSWTELARELDFTEEQIHQIRWENPNSLQDQSHALLKYWLERDGKHATDTNLVECLTKINRMDIVHLME [I33W] | -0.073 ± 0.098

Variant | abundance fitness
ERLAYIADHLGFSWTELARELDFTEEQIHQIRYENPNSLQDQSHALLKYWLERDGKHATDTNLVECLTKINRMDIVHLME [I33Y] | -0.027 ± 0.15
ERLAYIADHLGFSWTELARELDFTEEQIHQIRFENPNSLQDQSHALLKYWLERDGKHATDTNLVECLTKINRMDIVHLME [I33F] | -0.019 ± 0.18
ERLAYIADHLGFSWTELARELDFTEEQICQIRIENPNSLQDQSHALLKYWLERDGKHATDTNLVECLTKINRMDIVHLME [H29C] | -0.07 ± 0.15
ERLAYIADHLGFSWTELARELDFTEEQKHQIRIENPNSLQDQSHALLKYWLERDGKHATDTNLVECLTKINRMDIVHLME [I28K] | -0.633 ± 0.32
ERLAYIADHLGFSWTELARELDFTEEQIHQIRIENPNSLQDQSHALLKYWLERDGKHATDTNLVELLTKINRMDIVHLME [C66L] | -0.126 ± 0.061
ERLAYIADHLGFSWTELARELDFTEEQIHQIRIENPNSLQDQSHALLKYWLERDGKHATDTNLVEELTKINRMDIVHLME [C66E] | 0.091 ± 0.12
ERLAYIADHLGFSWTELARELDFTEEQIHQIRIENPNSLQDQSHALLKYWLERDGKHATDTNLVEPLTKINRMDIVHLME [C66P] | 0.065 ± 0.056
ERLAYIADHLGFSWTELARELDFTEEQIHQIRIENPNSLQDQSHALLKYWLRRDGKHATDTNLVECLTKINRMDIVHLME [E52R] | -0.045 ± 0.088
ERLAYIADHLGFSWTELARELDFTEEQIHQIRIENPNSLQDQSHALLKYWLFRDGKHATDTNLVECLTKINRMDIVHLME [E52F] | -0.034 ± 0.14
ERLAYIADHLGFSWTELARELDFTEEQIHQIRIENPNSLQSQSHALLKYWLERDGKHATDTNLVECLTKINRMDIVHLME [D41S] | -0.005 ± 0.054
ERLAYIAGHLGFSWTELARELDFTEEQIHQIRIENPNSLQDQSHALLKYWLERDGKHATDTNLVECLTKINRMDIVHLME [D8G] | -0.116 ± 0.12
ERLAYIATHLGFSWTELARELDFTEEQIHQIRIENPNSLQDQSHALLKYWLERDGKHATDTNLVECLTKINRMDIVHLME [D8T] | 0.088 ± 0.21
ERLAYIADHLGFSWTEIARELDFTEEQIHQIRIENPNSLQDQSHALLKYWLERDGKHATDTNLVECLTKINRMDIVHLME [L17I] | -0.024 ± 0.18
ERLAYIADHLGFSWTEHARELDFTEEQIHQIRIENPNSLQDQSHALLKYWLERDGKHATDTNLVECLTKINRMDIVHLME [L17H] | -0.91 ± 0.38
ERLAYIADHLGFSWTELARELDFTEEQIHQIRIENPNSLQDQSHALLKYWLERDGSHATDTNLVECLTKINRMDIVHLME [K56S] | -0.019 ± 0.061
ERLAYIADHLGFSWTELARELDFTEEQIHQIRIENPNSLQDQSHALLKYWLERDDKHATDTNLVECLTKINRMDIVHLME [G55D] | 0.041 ± 0.073
ERLAYIADHLGFSWTELARELDFTEEQIHQIRIENPNSLQDQSHALLKYWLERDGKHATDTNLVECLTKINRMDINHLME [V76N] | -0.249 ± 0.24
ERLAYIADHLGFSWTELARELDRTEEQIHQIRIENPNSLQDQSHALLKYWLERDGKHATDTNLVECLTKINRMDIVHLME [F23R] | -1.05 ± 0.17
ERLAYIADHLGFSWTELARELDGTEEQIHQIRIENPNSLQDQSHALLKYWLERDGKHATDTNLVECLTKINRMDIVHLME [F23G] | -1.17 ± 0.19
ERLAYIADHLGFSWTELARELDFTEEQIHQIRIENPNSLQDQSHALLKYWLERDGKHATDTNLEECLTKINRMDIVHLME [V64E] | 0.079 ± 0.12
ERLAYIADYLGFSWTELARELDFTEEQIHQIRIENPNSLQDQSHALLKYWLERDGKHATDTNLVECLTKINRMDIVHLME [H9Y] | -0.409 ± 0.4
ERLAYIADHLGFSWTELARELDFTEEQIHQIRIENPNSLQDQSHALLKYWLERPGKHATDTNLVECLTKINRMDIVHLME [D54P] | -0.144 ± 0.058
ERLAYIADHLGFSWTELARELDFTEEQIHQIRIENPNSLQDQSHALLKYWLERDGKHATDTNLVECLTKINRMDGVHLME [I75G] | -0.263 ± 0.087
